Publication PMC3728543, “Structure-Based Mechanism for Early PLP-Mediated Steps of Rabbit Cytosolic Serine Hydroxymethyltransferase Reaction” (BioMed Research International, 2013)
Substitutions are numbered along the chain they refer to. In names and notes the source's numbering stands.

B1: rabbit cytosolic serine hydroxymethyltransferase, wild type (enzyme, UniProt P07511 1-484, looked up)
chain: MATAVNGAPRDAALWSSHEQMLAQPLKDSDAEVYDIIKKESNRQRVGLELIASENFASRAVLEALGSCLNNKYSEGYPGQRYYGGTEHIDELETLCQKRALQAYGLDPQCWGVNVQPYSGSPANFAVYTALVEPHGRIMGLDLPDGGHLTHGFMTDKKKISATSIFFESMAYKVNPDTGYIDYDRLEENARLFHPKLIIAGTSCYSRNLDYGRLRKIADENGAYLMADMAHISGLVVAGVVPSPFEHCHVVTTTTHKTLRGCRAGMIFYRRGVRSVDPKTGKEILYNLESLINSAVFPGLQGGPHNHAIAGVAVALKQAMTPEFKEYQRQVVANCRALSAALVELGYKIVTGGSDNHLILVDLRSKGTDGGRAEKVLEACSIACNKNTCPGDKSALRPSGLRLGTPALTSRGLLEKDFQKVAHFIHRGIELTVQIQDDTGPRATLKEFKEKLAGDEKHQRAVRALRQEVESFAALFPLPGLPGF
modifications: pyridoxal 5'-phosphate bound as internal aldimine to the epsilon-amino group of Lys257
notes: rabbit cytosolic serine hydroxymethyltransferase (rcSHMT, EC 2.1.2.1); cDNA in the pET22b vector; the wild type probably came the same way; also called rcSHMT; wild type rcSHMT
B2: rabbit cytosolic serine hydroxymethyltransferase T254C mutant (enzyme, UniProt P07511 1-484, looked up)
chain: B1 chain with T254C
modifications: pyridoxal 5'-phosphate bound to Lys257 (internal aldimine; gem-diamine with glycine or L-serine)
notes: rabbit cytosolic serine hydroxymethyltransferase (rcSHMT) with T254C; cDNA in the pET22b vector; numbering is that for rcSHMT; also called T254C rcSHMT
B3: rabbit cytosolic serine hydroxymethyltransferase T254A mutant (enzyme, UniProt P07511 1-484, looked up)
chain: B1 chain with T254A
modifications: pyridoxal 5'-phosphate bound to Lys257 (internal aldimine; gem-diamine with glycine or L-serine)
notes: rabbit cytosolic serine hydroxymethyltransferase (rcSHMT) with T254A; cDNA in the pET22b vector; numbering is that for rcSHMT; also called T254A rcSHMT

Biological target: the molecule itself
Assay: crystal structure; crystals from 2-3% PEG4000, 20 mM K2HPO4/KH2PO4, 50 mM potassium MES or sodium HEPES pH 7.0, room temperature, protein 50 mg/mL; unliganded or with 60 mM glycine or L-serine; space group P41 with a tetramer per asymmetric unit (T254C-glycine: P41212, a dimer per asymmetric unit)

Stoichiometry N, 4:
B1
B2
B3
